Results from patent US6861508B2, “Transcriptional intermediary factor-2” (Institut National de la Sante et de la Recherche Medicale, priority 1996, dated 2005).

T1: (His)6-TIF2.1, E. coli-expressed purified recombinant TIF2.1 (human, UniProt Q15596 624-1287)
T1 construct: also called His-tagged TIF2.1; purified TIF2.1 protein; not shown: (His)6 tag of pET15b
T1 sequence: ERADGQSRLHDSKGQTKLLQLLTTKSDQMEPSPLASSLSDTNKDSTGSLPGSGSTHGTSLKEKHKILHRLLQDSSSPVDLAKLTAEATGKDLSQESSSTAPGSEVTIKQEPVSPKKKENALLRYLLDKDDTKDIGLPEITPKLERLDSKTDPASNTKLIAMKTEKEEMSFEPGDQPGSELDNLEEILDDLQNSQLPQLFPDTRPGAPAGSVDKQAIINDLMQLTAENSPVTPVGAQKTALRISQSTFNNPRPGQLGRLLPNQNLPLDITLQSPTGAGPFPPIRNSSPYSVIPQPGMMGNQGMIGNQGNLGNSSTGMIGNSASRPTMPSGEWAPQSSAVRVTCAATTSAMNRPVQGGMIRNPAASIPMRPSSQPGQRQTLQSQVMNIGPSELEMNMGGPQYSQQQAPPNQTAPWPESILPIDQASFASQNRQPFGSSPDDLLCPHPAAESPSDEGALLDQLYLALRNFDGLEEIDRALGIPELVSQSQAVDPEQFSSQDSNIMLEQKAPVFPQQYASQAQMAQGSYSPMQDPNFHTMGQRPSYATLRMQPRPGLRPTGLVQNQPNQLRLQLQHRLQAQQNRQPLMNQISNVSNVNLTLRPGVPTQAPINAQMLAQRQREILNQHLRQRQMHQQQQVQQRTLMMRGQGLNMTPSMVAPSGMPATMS

T2: GST-hRARα(DEF) (pGEX2T-hRARα(DEF), amino acids 153-462) (human, UniProt P10276 153-462)
T2 construct: range 153-462; Bacterially produced; also called GST-RAR; GST-RARα(DEF); not shown: glutathione-S-transferase (GST) of pGEX2T (Pharmacia)
T2 sequence (looked up): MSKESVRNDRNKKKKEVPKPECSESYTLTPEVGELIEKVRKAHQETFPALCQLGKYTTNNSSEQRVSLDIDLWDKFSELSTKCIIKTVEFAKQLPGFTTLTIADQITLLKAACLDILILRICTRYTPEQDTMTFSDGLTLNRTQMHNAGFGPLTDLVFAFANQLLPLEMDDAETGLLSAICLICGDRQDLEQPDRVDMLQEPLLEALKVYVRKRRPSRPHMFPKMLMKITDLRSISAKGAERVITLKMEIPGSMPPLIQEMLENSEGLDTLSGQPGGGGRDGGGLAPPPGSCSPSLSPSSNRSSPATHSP

T3: GST-mRXRα(DE) (pGEX2T-mRXRα(DE), amino acids 205-467) (mouse, UniProt P28700 205-467)
T3 construct: range 205-467; also called GST-RXR; GST-RXRα(DE); not shown: glutathione-S-transferase (GST) of pGEX2T (Pharmacia)
T3 sequence (looked up): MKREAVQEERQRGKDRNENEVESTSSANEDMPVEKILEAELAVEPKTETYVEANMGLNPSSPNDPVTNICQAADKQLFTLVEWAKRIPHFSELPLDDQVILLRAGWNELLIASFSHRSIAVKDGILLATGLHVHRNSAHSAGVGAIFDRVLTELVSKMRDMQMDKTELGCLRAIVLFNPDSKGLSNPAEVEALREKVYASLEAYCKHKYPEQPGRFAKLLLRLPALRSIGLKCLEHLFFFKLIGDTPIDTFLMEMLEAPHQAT


Key:
[1] = biological target: T1, (His)6-TIF2.1, E. coli-expressed …; assay: GST interaction assay (not shown)
[2] = biological target: T2, GST-hRARα(DEF) (pGEX2T-hRARα(DEF), …); assay: in vitro GST interaction of TIF2.1 point mutants, with ligand, relative to TIF2.1 wild type
[3] = biological target: T3, GST-mRXRα(DE) (pGEX2T-mRXRα(DE), amino …); assay: as above
GAL4 reporter = assay: GAL4 DBD-TIF2 fusion CAT reporter transactivation assay; type: cell-based; conditions: Cos-1 and/or HeLa cells
Description: (a) HeLa cells were cotransfected with 1 μg (17m)5-βG-CAT and 10 μg GAL(1-147) or 1,3 and 10 μg GAL(1-147)-TIF2.1, respectively.
(c) Analysis of the transcriptional activity of GAL-TIF2 fusion proteins. Cos-1 and HeLa cells were transfected with 3 lag of plasmids expressing different regions of TIF2 fised to the DNA-binding domain of the yeast transcription factor GALA together with 1 μg of the (7m)5-G-CAT reporterplasmid. CAT assays were performed as described (Bocquel, M. T. et al., Nucl Acids Res. 17:2581-2595 (1989)). Quantitative data on CAT reporter expression were obtained either by phosphoimager analysis (BAS2000, Fuji) of ^14C-labeled CAT reaction products separated by thin-layer chromatography, or using the CAT ELISA Kit (Boehringer Mannheim). In all cases, CAT activities were normalized to the β-galactosidase concentrations resulting from cotransfection of 1 μg of pCMVPGal (gift from T. Lerouge) as internal control. Fold inductions above the GAL4 DBD value are indicated. The mean and standard deviation of at least three experiments are shown. A representative Western blot, illustrating the expression levels of the GAL4-TIF2 fusion proteins, expressed from 10 μg of the corresponding expression vectors, is shown on the left.
(b) Transcriptional activation of TIF2 AF-1 mutants. Cos-1 and HeLa cells were cotransfected with 3 μg of plasmids expressing different mutants of the TIF2 AF-1 fused to the DNA-binding domain of the yeast transcription factor GAL4 together with 1 μg of the (17m)5-G-CAT reporter plasmid. Fold inductions above the activation seen with the GAL4 DBD alone are indicated. The values represent the mean of at least three experiments.
(a) Transcriptional activation by TIF2.13 and TIF2.13 mutants. Cos-1 and HeLa cells were cotransfected with 3 μg of plasmids expressing the TIF2.13 region and the indicated TIF2.13 mutants fused to the DNA-binding domain of the yeast transcription factor GALA together with 1 μg of the (17m)5-G-CAT reporter plasmid. Fold inductions above the GAL4 DBD 1-fold value are indicated. The mean and standard deviation obtained from at least four experiments are shown. The expression levels of the GAL4-TIF2.13 fusion proteins were confirmed by western blotting (data not shown).
Transient transfections of HeLa and Cos-1 cells were performed as described (Gronemeyer et al., (1987); Bocquel, M. T. et al., Nucl. Acids Res. 17:2581-2595 (1989)).

GAL-CBP = assay: two hybrid analysis of CBP-TIF2 interaction in HeLa cells; type: cell-based
Description: (e) Two hybrid analysis of the CBP-TIF2 interaction in mammalian cells in vivo. HeLa cells were transfected with 0.2 μg of the GAL4 or GALA-CBP (expressing CBP residues 1872 to 2165) expression vectors together with 0.2 μg of the VP16 or VPI6-TF2 expression vectors in the presence of 2 μg of (17m)5-TATA-CAT reporter plasmid. Fold induction relative to the GAL-CBP activity is indicated. The mean of three experiments is shown; in each case, values varied by less than ±20%.
HeLa cells were transfected with 0.2 μg of GAL4 or GAL-CBP expression vectors together with 0.2 μg of VP16 or VP16-TIF2.13 expression vectors in the presence of 1 μg of (17m)5-TATA-CAT reporter plasmid. Data are represented as fold induction of the activity seen with GAL-CBP alone. The mean and standard, deviation obtained from ten experiments are shown. The expression levels were confirmed by Western blotting with antibodies directed against GAL4 DBD and VP16 AAD (data not shown).
Furthermore, it was reported that SRC-1, which belongs to the same gene family as TIF2, interacts with CBP and p300 (Kamei, Y. et al., Cell 85:403-414 (1996); Yao, T. P. et al., Proc. Natl. Acad. Sci. USA 93:10626-10631 (1996); Hanstein, B., et al., Proc. Natl. Acad Sci USA 93:11540-11545 (1996)). Using GST-fusion protein-based interaction and animal cell-based two hybrid assays, we therefore analyzed whether TIF2 could also interact with CBP. […] A GST-CBP fusion protein was expressed in E. coli and used for puU-down assays with in vitro translated TIF2 polypeptides (FIG. 7d).

binding result [1] | times less efficient in NR interaction than the wild-type TIF2 [2] | times less efficient in NR interaction than the wild-type TIF2 [3] | Molecule | also measured
no binding |  |  | GST-hTAFII55 (printed hTAFn55) (other, human, UniProt Q15545 1-349, looked up, not shown: glutathione-S-transferase (GST)) MSKSKDDAPHELESQFILRLPPEYASTVRRAVQSGHVNLKDRLTIELHPDGRHGIVRVDRVPLASKLVDLPCVMESLKTIDKKTFYKTADICQMLVSTVDGDLYPPVEEPVASTDPKASKKKDKDKEKKFIWNHGITLPLKNVRKRRFRKTAKKKYIESPDVEKEVKRLLSTDAEAVSTRWEIIAEDETKEAENQGLDISSPGMSGHRQGHDSLEHDELREIFNDLSSSSEDEDETQHQDEEDINIIDTEEDLERQLQDKLNESDEQHQENEGTNQLVMGIQKQIDNMKGKLQETQDRAKRQEDLIMKVENLALKNRFQAVLDELKQKEDREKEQLSSLQEELESLLEK | 
 | 5 times less efficient than wild type | 5 times less efficient than wild type | TIF2.1 m13 (LL→AA in NR box motifs I and III) (other, also called single intact NR box II) ERADGQSRLHDSKGQTKLLQAATTKSDQMEPSPLASSLSDTNKDSTGSLPGSGSTHGTSLKEKHKILHRLLQDSSSPVDLAKLTAEATGKDLSQESSSTAPGSEVTIKQEPVSPKKKENALLRYAADKDDTKDIGLPEITPKLERLDSKTDPASNTKLIAMKTEKEEMSFEPGDQPGSELDNLEEILDDLQNSQLPQLFPDTRPGAPAGSVDKQAIINDLMQLTAENSPVTPVGAQKTALRISQSTFNNPRPGQLGRLLPNQNLPLDITLQSPTGAGPFPPIRNSSPYSVIPQPGMMGNQGMIGNQGNLGNSSTGMIGNSASRPTMPSGEWAPQSSAVRVTCAATTSAMNRPVQGGMIRNPAASIPMRPSSQPGQRQTLQSQVMNIGPSELEMNMGGPQYSQQQAPPNQTAPWPESILPIDQASFASQNRQPFGSSPDDLLCPHPAAESPSDEGALLDQLYLALRNFDGLEEIDRALGIPELVSQSQAVDPEQFSSQDSNIMLEQKAPVFPQQYASQAQMAQGSYSPMQDPNFHTMGQRPSYATLRMQPRPGLRPTGLVQNQPNQLRLQLQHRLQAQQNRQPLMNQISNVSNVNLTLRPGVPTQAPINAQMLAQRQREILNQHLRQRQMHQQQQVQQRTLMMRGQGLNMTPSMVAPSGMPATMS | 
 | 20 times less efficient than wild type | 20 times less efficient than wild type | TIF2.1 m23 (LL→AA in NR box motifs II and III) (other, also called single intact NR box I) ERADGQSRLHDSKGQTKLLQLLTTKSDQMEPSPLASSLSDTNKDSTGSLPGSGSTHGTSLKEKHKILHRAAQDSSSPVDLAKLTAEATGKDLSQESSSTAPGSEVTIKQEPVSPKKKENALLRYAADKDDTKDIGLPEITPKLERLDSKTDPASNTKLIAMKTEKEEMSFEPGDQPGSELDNLEEILDDLQNSQLPQLFPDTRPGAPAGSVDKQAIINDLMQLTAENSPVTPVGAQKTALRISQSTFNNPRPGQLGRLLPNQNLPLDITLQSPTGAGPFPPIRNSSPYSVIPQPGMMGNQGMIGNQGNLGNSSTGMIGNSASRPTMPSGEWAPQSSAVRVTCAATTSAMNRPVQGGMIRNPAASIPMRPSSQPGQRQTLQSQVMNIGPSELEMNMGGPQYSQQQAPPNQTAPWPESILPIDQASFASQNRQPFGSSPDDLLCPHPAAESPSDEGALLDQLYLALRNFDGLEEIDRALGIPELVSQSQAVDPEQFSSQDSNIMLEQKAPVFPQQYASQAQMAQGSYSPMQDPNFHTMGQRPSYATLRMQPRPGLRPTGLVQNQPNQLRLQLQHRLQAQQNRQPLMNQISNVSNVNLTLRPGVPTQAPINAQMLAQRQREILNQHLRQRQMHQQQQVQQRTLMMRGQGLNMTPSMVAPSGMPATMS | 
no binding |  |  | GST-hTAFII20 (printed hTAFn20) (other, human, UniProt Q16514 1-161, looked up, not shown: glutathione-S-transferase (GST)) MNQFGPSALINLSNFSSIKPEPASTPPQGSMANSTAVVKIPGTPGAGGRLSPENNQVLTKKKLQDLVREVDPNEQLDEDVEEMLLQIADDFIESVVTAACQLARHRKSSTLEVKDVQLHLERQWNMWIPGFGSEEIRPYKKACTTEAHKQRMALIRKTTKK | 
no binding |  |  | GST-hTAFII18 (printed hTAFn18) (other, human, UniProt Q15543 1-124, looked up, not shown: glutathione-S-transferase (GST)) MADEEEDPTFEEENEEIGGGAEGGQGKRKRLFSKELRCMMYGFGDDQNPYTESVDILEDLVIEFITEMTHKAMSIGRQGRVQVEDIVFLIRKDPRKFARVKDLLTMNEELKRARKAFDEANYGS | 
 |  |  | TIF2.13: TIF2 fragment Pro1011 to Ser1122 (protein, UniProt Q15596 1011-1122, looked up, fragment) PSELEMNMGGPQYSQQQAPPNQTAPWPESILPIDQASFASQNRQPFGSSPDDLLCPHPAAESPSDEGALLDQLYLALRNFDGLEEIDRALGIPELVSQSQAVDPEQFSSQDS | transcriptional activation of GAL4 reporter by GAL4 DBD fusion (GAL4 reporter): potent transcriptional activity; interaction with GAL-CBP, two hybrid (GAL-CBP): also interacted with CBP in vivo
